The values that follow come from patent US11673916B2, “Neuroprotective peptides and methods of their use” (University of Pittsburgh—Of the Commonwealth System of …, priority 2020, dated 2023).

In this test the target is T1, Kv2.1-VAPA association (Rattus norvegicus, UniProt P15387+Q9Z270).
T1 construct: endogenous in cells; host or cells: primary rat cortical neurons (untransfected, fixed and immunolabelled)
T1 sequence (P15387 1-857): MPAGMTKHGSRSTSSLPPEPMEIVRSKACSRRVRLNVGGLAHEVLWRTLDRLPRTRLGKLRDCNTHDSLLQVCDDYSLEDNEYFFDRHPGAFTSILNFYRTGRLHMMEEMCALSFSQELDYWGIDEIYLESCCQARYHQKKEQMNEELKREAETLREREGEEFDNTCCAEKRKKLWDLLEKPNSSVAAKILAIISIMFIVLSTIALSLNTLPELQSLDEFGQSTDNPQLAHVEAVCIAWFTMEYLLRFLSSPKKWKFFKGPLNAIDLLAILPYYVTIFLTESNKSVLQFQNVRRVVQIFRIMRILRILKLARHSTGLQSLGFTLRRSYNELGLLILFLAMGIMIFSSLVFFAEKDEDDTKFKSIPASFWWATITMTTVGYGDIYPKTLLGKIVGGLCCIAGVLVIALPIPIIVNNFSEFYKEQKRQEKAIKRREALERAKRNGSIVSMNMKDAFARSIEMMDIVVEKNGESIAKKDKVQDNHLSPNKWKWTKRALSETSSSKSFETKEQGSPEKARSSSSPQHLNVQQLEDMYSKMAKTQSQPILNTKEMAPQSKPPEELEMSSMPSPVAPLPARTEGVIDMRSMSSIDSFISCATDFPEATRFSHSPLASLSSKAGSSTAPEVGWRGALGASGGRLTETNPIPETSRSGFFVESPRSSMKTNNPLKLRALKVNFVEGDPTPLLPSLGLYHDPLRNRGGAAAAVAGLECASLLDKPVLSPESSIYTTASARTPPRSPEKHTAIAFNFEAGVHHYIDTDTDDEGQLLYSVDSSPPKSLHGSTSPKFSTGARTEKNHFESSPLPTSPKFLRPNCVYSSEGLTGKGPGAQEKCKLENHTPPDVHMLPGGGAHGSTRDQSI
T1 sequence (Q9Z270 2-249 limits assumed): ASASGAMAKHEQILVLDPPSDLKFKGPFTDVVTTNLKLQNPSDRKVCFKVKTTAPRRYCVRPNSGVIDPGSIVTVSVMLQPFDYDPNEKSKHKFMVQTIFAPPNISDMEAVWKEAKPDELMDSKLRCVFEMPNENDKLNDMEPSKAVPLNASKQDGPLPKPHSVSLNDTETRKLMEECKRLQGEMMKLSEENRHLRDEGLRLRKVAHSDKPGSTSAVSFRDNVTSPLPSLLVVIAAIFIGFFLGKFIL
Description: Proximity ligation assay (PLA) of Kv2.1-VAPA association in cortical neurons. Particulars: 10 μM peptide, 2-hour treatment, means+/-SEM (FIG. 3C). The class given is cell-based. How it is done: Duolink proximity ligation assay (PLA) technology (Sigma-Aldrich, St. Louis, Mo.) was utilized to assess in situ protein-protein interaction between Kv2.1 and vesicle-associated […] protein (VAMP)-associated protein A (VAPA). Primary cortical neurons on glass coverslips were treated in 24-well plates with vehicle (dH2O), TAT-Sc-2 (10 μM), or TAT-DP-2 (10 μM) for 2 hours at 37° C./5% CO2. Neurons were then rinsed with 2 mL ice-cold sterile PBS and then transferred to 1 mL 4% paraformaldehyde (PFA) in PBS for 20 minutes to fix. Coverslips were transferred to 1 mL 0.1 M glycine (in PBS) to quench fixation and rinsed three times in 1 mL PBS. […]
PLA puncta were imaged on a Nikon A1+ confocal microscope (Nikon, Tokyo, Japan) with a 60× objective. […] PLA puncta signals were then obtained by capturing 25 optical sections (0.5 μm) that constrained the entire Z-width of PLA-TRITC fluorescence as MAX-IP files. […] NIS-Elements AR object count feature was then utilized to analyze the quantity of PLA puncta per cell. […] As distinct local PLA puncta-TRITC auto-fluorescence (markedly different in appearance from PLA puncta) was noted, local background subtraction using a small ROI within this region was performed in a protocol similar to that described earlier (Glynn, et al., Nat Protoc. 1: 1287-1296, 2006). […]

As for “YGRKKRRQRRRDFSSIST [TAT-Sc-2, TAT-linked scramble control peptide]”, the “PLA puncta per square micron of neuronal soma” value is given as 0.10+/−0.06 #PLA puncta/sq. micron of cell soma.
The figure for “YGRKKRRQRRRSIDSFTS [TAT-DP-2, TAT-linked declustering peptide 2]” is 0.06+/−0.01 #PLA puncta/sq. micron of cell soma.
